# Measured values reported in US20140105889A1 (published 2014).
# B1: GpH7-B3 P271S / GpL16-k0 (antibody, human IgG1)
# heavy: not shown
# light: DIVMTQSPLSLPVTPGEPASISCQASESLVHSNRNTYLHWYLQKPGQSPQLLIYKVSNRFSGVPDRFSGSGSGTDFTLKISRVEAEDVGVYYCSQNTHVPPTFGQGTKVEIE
# notes: B3 variant: anti-glypican-3 IgG1 (constant region B3 = G1d with K439E) with one substitution, EU numbering; also called B3 variant P271S; copies: 2 + 2
# B2: GpH7-B3 P271T / GpL16-k0 (antibody, human IgG1)
# heavy: not shown
# light: B1 light
# notes: B3 variant: anti-glypican-3 IgG1 (constant region B3 = G1d with K439E) with one substitution, EU numbering; also called B3 variant P271T; copies: 2 + 2
# B3: GpH7-B3 P271W / GpL16-k0 (antibody, human IgG1)
# heavy: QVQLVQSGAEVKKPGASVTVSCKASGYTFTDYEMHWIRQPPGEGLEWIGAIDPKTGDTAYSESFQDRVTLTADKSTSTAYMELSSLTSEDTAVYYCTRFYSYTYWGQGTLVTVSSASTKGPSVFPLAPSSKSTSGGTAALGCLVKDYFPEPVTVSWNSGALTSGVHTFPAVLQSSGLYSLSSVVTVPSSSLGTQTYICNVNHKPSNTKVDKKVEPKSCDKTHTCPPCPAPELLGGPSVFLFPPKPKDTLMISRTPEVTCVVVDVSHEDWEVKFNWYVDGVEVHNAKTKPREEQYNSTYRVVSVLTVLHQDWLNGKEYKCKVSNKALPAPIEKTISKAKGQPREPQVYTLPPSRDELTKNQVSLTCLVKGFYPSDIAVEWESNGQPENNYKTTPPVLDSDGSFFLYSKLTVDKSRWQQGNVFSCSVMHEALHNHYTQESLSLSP
# light: B1 light
# notes: B3 variant: anti-glypican-3 IgG1 (constant region B3 = G1d with K439E) with one substitution, EU numbering; also called B3 variant P271W; copies: 2 + 2
# B4: GpH7-B3 P271Y / GpL16-k0 (antibody, human IgG1)
# heavy: not shown
# light: B1 light
# notes: B3 variant: anti-glypican-3 IgG1 (constant region B3 = G1d with K439E) with one substitution, EU numbering; also called B3 variant P271Y; copies: 2 + 2
# B5: GpH7-B3 Q295D / GpL16-k0 (antibody, human IgG1)
# heavy: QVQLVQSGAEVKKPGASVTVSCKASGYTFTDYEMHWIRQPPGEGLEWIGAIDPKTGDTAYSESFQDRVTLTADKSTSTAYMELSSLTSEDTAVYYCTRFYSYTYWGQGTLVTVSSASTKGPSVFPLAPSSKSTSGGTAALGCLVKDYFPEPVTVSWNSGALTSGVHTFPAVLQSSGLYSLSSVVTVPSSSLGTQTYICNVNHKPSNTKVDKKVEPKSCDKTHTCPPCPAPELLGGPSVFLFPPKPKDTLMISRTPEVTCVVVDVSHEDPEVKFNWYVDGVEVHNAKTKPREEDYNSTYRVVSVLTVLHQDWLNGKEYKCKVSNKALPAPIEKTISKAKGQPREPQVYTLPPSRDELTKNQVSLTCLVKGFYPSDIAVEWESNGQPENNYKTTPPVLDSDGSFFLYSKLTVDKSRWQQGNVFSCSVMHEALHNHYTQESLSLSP
# light: B1 light
# notes: B3 variant: anti-glypican-3 IgG1 (constant region B3 = G1d with K439E) with one substitution, EU numbering; also called B3 variant Q295D; copies: 2 + 2
# B6: GpH7-B3 Q295F / GpL16-k0 (antibody, human IgG1)
# heavy: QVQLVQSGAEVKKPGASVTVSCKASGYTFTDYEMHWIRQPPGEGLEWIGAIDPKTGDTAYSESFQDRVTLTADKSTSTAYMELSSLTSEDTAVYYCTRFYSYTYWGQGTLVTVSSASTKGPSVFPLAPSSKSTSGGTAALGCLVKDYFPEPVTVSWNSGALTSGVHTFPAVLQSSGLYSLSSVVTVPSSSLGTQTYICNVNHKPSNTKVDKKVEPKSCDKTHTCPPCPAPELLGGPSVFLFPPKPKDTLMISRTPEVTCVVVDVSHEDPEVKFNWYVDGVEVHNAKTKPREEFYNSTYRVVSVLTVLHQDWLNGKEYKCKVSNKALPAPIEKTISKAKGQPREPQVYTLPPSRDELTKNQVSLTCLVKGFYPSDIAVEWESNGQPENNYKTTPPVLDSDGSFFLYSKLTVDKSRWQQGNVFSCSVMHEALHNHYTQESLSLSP
# light: B1 light
# notes: B3 variant: anti-glypican-3 IgG1 (constant region B3 = G1d with K439E) with one substitution, EU numbering; also called B3 variant Q295F; copies: 2 + 2
# B7: GpH7-B3 Q295G / GpL16-k0 (antibody, human IgG1)
# heavy: not shown
# light: B1 light
# notes: B3 variant: anti-glypican-3 IgG1 (constant region B3 = G1d with K439E) with one substitution, EU numbering; also called B3 variant Q295G; copies: 2 + 2
# B8: GpH7-B3 Q295H / GpL16-k0 (antibody, human IgG1)
# heavy: not shown
# light: B1 light
# notes: B3 variant: anti-glypican-3 IgG1 (constant region B3 = G1d with K439E) with one substitution, EU numbering; also called B3 variant Q295H; copies: 2 + 2
# B9: GpH7-B3 Q295N / GpL16-k0 (antibody, human IgG1)
# heavy: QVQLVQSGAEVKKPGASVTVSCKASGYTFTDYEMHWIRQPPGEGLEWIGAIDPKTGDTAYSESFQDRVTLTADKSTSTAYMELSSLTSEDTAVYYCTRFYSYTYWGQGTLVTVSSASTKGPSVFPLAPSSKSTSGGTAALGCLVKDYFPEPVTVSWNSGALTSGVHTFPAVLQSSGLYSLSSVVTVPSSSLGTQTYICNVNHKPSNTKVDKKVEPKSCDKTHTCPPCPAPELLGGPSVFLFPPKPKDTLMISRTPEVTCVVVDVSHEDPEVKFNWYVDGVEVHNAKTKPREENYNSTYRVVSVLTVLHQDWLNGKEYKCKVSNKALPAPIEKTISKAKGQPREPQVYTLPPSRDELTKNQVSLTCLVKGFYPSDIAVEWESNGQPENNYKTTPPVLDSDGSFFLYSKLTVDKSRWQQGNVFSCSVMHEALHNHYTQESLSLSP
# light: B1 light
# notes: B3 variant: anti-glypican-3 IgG1 (constant region B3 = G1d with K439E) with one substitution, EU numbering; also called B3 variant Q295N; copies: 2 + 2
# B10: GpH7-B3 Q295R / GpL16-k0 (antibody, human IgG1)
# heavy: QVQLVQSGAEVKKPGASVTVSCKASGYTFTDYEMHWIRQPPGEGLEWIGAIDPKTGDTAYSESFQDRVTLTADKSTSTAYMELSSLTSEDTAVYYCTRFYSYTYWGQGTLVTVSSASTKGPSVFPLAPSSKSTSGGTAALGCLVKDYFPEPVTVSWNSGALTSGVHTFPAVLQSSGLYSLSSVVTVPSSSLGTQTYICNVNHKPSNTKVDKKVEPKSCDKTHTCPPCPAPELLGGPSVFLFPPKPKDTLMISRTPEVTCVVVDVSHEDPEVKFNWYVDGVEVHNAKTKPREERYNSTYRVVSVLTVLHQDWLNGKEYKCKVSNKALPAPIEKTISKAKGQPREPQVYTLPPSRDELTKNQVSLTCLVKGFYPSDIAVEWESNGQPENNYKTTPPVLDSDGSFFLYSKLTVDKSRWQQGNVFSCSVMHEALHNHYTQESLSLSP
# light: B1 light
# notes: B3 variant: anti-glypican-3 IgG1 (constant region B3 = G1d with K439E) with one substitution, EU numbering; also called B3 variant Q295R; copies: 2 + 2
# B11: GpH7-B3 Q295S / GpL16-k0 (antibody, human IgG1)
# heavy: not shown
# light: B1 light
# notes: B3 variant: anti-glypican-3 IgG1 (constant region B3 = G1d with K439E) with one substitution, EU numbering; also called B3 variant Q295S; copies: 2 + 2
# B12: GpH7-B3 Q295W / GpL16-k0 (antibody, human IgG1)
# heavy: not shown
# light: B1 light
# notes: B3 variant: anti-glypican-3 IgG1 (constant region B3 = G1d with K439E) with one substitution, EU numbering; also called B3 variant Q295W; copies: 2 + 2
# B13: GpH7-B3 Q295Y / GpL16-k0 (antibody, human IgG1)
# heavy: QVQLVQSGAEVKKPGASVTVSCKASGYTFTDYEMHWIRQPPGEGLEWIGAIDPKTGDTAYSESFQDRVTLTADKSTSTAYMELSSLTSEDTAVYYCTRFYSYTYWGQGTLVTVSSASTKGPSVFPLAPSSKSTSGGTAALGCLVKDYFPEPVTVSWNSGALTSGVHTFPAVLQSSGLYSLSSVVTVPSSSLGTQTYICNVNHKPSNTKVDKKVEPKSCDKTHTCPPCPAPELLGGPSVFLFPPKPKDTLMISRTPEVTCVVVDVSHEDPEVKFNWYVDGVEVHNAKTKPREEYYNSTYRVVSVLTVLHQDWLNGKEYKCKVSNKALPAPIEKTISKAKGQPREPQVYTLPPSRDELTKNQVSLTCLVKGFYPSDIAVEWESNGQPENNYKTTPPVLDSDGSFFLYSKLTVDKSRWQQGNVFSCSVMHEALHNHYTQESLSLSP
# light: B1 light
# notes: B3 variant: anti-glypican-3 IgG1 (constant region B3 = G1d with K439E) with one substitution, EU numbering; also called B3 variant Q295Y; copies: 2 + 2
# B14: GpH7-B3 S298G / GpL16-k0 (antibody, human IgG1)
# heavy: not shown
# light: B1 light
# notes: B3 variant: anti-glypican-3 IgG1 (constant region B3 = G1d with K439E) with one substitution, EU numbering; also called B3 variant S298G; copies: 2 + 2
# B15: GpH7-B3 S298K / GpL16-k0 (antibody, human IgG1)
# heavy: not shown
# light: B1 light
# notes: B3 variant: anti-glypican-3 IgG1 (constant region B3 = G1d with K439E) with one substitution, EU numbering; also called B3 variant S298K; copies: 2 + 2
# B16: GpH7-B3 S298P / GpL16-k0 (antibody, human IgG1)
# heavy: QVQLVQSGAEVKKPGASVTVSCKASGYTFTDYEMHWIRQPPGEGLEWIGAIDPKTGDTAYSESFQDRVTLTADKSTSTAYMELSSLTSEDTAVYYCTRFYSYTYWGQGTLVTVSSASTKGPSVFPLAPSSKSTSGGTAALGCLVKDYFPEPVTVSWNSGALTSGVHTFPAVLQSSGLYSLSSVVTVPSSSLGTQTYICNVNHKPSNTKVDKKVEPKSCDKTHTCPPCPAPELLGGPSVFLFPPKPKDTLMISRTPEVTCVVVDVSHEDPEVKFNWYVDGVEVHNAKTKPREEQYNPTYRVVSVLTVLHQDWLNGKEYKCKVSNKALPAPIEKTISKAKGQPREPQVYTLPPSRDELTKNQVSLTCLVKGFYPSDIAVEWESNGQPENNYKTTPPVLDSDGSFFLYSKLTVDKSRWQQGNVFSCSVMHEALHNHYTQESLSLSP
# light: B1 light
# notes: B3 variant: anti-glypican-3 IgG1 (constant region B3 = G1d with K439E) with one substitution, EU numbering; also called B3 variant S298P; copies: 2 + 2
# B17: GpH7-B3 S298R / GpL16-k0 (antibody, human IgG1)
# heavy: not shown
# light: B1 light
# notes: B3 variant: anti-glypican-3 IgG1 (constant region B3 = G1d with K439E) with one substitution, EU numbering; also called B3 variant S298R; copies: 2 + 2
# B18: GpH7-B3 S298W / GpL16-k0 (antibody, human IgG1)
# heavy: not shown
# light: B1 light
# notes: B3 variant: anti-glypican-3 IgG1 (constant region B3 = G1d with K439E) with one substitution, EU numbering; also called B3 variant S298W; copies: 2 + 2
# B19: GpH7-B3 S298Y / GpL16-k0 (antibody, human IgG1)
# heavy: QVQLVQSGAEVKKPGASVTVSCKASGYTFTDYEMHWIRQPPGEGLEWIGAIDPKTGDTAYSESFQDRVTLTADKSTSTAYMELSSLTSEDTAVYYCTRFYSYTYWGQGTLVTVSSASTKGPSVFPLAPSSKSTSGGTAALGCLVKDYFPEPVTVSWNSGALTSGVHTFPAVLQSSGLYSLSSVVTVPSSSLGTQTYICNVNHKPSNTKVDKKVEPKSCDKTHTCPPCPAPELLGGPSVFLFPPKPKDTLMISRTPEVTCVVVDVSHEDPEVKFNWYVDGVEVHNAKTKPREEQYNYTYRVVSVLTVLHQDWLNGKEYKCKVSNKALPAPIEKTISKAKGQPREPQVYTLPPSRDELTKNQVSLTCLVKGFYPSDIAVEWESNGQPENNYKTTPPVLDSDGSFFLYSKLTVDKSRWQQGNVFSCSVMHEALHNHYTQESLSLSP
# light: B1 light
# notes: B3 variant: anti-glypican-3 IgG1 (constant region B3 = G1d with K439E) with one substitution, EU numbering; also called B3 variant S298Y; copies: 2 + 2
# B20: GpH7-B3 Y296G / GpL16-k0 (antibody, human IgG1)
# heavy: not shown
# light: B1 light
# notes: B3 variant: anti-glypican-3 IgG1 (constant region B3 = G1d with K439E) with one substitution, EU numbering; also called B3 variant Y296G; copies: 2 + 2
# B21: GpH7-B3 Y296K / GpL16-k0 (antibody, human IgG1)
# heavy: not shown
# light: B1 light
# notes: B3 variant: anti-glypican-3 IgG1 (constant region B3 = G1d with K439E) with one substitution, EU numbering; also called B3 variant Y296K; copies: 2 + 2
# B22: GpH7-B3 Y296R / GpL16-k0 (antibody, human IgG1)
# heavy: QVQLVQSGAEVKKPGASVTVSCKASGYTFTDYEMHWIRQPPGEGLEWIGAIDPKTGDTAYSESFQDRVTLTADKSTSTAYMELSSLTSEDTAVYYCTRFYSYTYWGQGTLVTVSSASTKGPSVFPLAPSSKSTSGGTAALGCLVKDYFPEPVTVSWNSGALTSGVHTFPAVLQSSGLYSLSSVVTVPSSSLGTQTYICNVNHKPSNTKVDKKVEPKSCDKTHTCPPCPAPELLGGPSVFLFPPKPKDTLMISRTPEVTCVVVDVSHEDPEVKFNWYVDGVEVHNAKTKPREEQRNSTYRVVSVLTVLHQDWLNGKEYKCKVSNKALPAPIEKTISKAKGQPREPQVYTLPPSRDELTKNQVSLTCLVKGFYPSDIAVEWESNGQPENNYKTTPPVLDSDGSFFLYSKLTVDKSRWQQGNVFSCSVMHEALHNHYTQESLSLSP
# light: B1 light
# notes: B3 variant: anti-glypican-3 IgG1 (constant region B3 = G1d with K439E) with one substitution, EU numbering; also called B3 variant Y296R; copies: 2 + 2
# B23: GpH7-B3 Y300P / GpL16-k0 (antibody, human IgG1)
# heavy: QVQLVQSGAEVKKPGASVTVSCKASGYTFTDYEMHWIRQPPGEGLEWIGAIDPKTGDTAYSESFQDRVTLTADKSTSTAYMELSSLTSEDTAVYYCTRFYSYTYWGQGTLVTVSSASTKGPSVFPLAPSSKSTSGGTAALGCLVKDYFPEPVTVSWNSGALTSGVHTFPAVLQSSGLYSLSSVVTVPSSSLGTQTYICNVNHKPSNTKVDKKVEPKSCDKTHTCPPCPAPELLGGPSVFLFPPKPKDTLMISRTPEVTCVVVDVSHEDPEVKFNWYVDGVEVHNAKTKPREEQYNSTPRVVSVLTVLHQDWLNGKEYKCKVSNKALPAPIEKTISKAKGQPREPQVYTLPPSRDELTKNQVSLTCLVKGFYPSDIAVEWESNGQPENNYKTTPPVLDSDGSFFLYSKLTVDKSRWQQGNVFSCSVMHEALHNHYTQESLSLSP
# light: B1 light
# notes: B3 variant: anti-glypican-3 IgG1 (constant region B3 = G1d with K439E) with one substitution, EU numbering; also called B3 variant Y300P; copies: 2 + 2
# B24: GpH7-B3 Y300R / GpL16-k0 (antibody, human IgG1)
# heavy: not shown
# light: B1 light
# notes: B3 variant: anti-glypican-3 IgG1 (constant region B3 = G1d with K439E) with one substitution, EU numbering; also called B3 variant Y300R; copies: 2 + 2
# Biological target: T1, human FcγRIIIa(F) (human, UniProt P08637 17-208, limits assumed)
# T1 construct: also called FcgRIIIaF; FcγRIIIa allotype F158
# T1 sequence (P08637 other isoform, or with tags, fused parts or gaps limits assumed): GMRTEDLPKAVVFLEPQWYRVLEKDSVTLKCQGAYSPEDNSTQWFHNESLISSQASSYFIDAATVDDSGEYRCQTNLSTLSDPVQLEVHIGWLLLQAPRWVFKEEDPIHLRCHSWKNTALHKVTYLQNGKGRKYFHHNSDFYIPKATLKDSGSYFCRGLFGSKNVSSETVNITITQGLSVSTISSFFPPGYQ
# Test: SPR (Biacore), antibody captured, FcγR as analyte
# Description: Interaction between each modified antibody and Fcγ receptor prepared in the manner described above was analyzed using the Biacore T100 (GE Healthcare), Biacore T200 (GE Healthcare), Biacore A100 or Biacore 4000. HBS-EP+ (GE Healthcare) was used for the running buffer, and measurements were carried out at 25° C. The chips used were chips in which antigen peptides, Protein A (Thermo Scientific), Protein A/G (Thermo Scientific) or Protein L (ACTIGEN or BioVision) were immobilized on the Series S Sensor Chip CM5 (GE Healthcare) or Series S Sensor Chip CM4 (GE Healthcare) by amine coupling, or chips in which preliminarily biotinylated antigen peptides were allowed to interact and then immobilized on the Series S Sensor Chip SA (certified) (GE Healthcare). The target antibodies were captured on these sensor chips, Fcγ receptor diluted with the running buffer was allowed to interact, followed by measurement of the amount of bound antibody. The amounts bound were compared between antibodies. However, since the amount of Fcγ receptor bound depends on the amount of captured antibody, the values used for comparison were first corrected by dividing the amount of Fcγ receptor bound by the captured amount of each antibody. Through reaction with 10 mM glycine-HCl at pH 1.5, the sensor chips were regenerated by washing off antibody captured on the sensor chips and used repeatedly.
# Binding strength was evaluated according to the following method based on the results of analyzing the interaction with each FcγR. […] That value was then further multiplied by 100, and the resulting value was used as an indicator of relative binding activity to each FcγR.
row,Binder,relative binding activity (amount bound / amount bound by GpH7-B3/GpL16-k0 x100)
1,B1,62 % of GpH7-B3/GpL16-k0
2,B2,31 % of GpH7-B3/GpL16-k0
3,B3,57 % of GpH7-B3/GpL16-k0
4,B4,33 % of GpH7-B3/GpL16-k0
5,B5,64 % of GpH7-B3/GpL16-k0
6,B6,46 % of GpH7-B3/GpL16-k0
7,B7,55 % of GpH7-B3/GpL16-k0
8,B8,52 % of GpH7-B3/GpL16-k0
9,B9,68 % of GpH7-B3/GpL16-k0
10,B10,52 % of GpH7-B3/GpL16-k0
11,B11,87 % of GpH7-B3/GpL16-k0
12,B12,10 % of GpH7-B3/GpL16-k0
13,B13,49 % of GpH7-B3/GpL16-k0
14,B14,59 % of GpH7-B3/GpL16-k0
15,B15,25 % of GpH7-B3/GpL16-k0
16,B16,0 % of GpH7-B3/GpL16-k0
17,B17,20 % of GpH7-B3/GpL16-k0
18,B18,11 % of GpH7-B3/GpL16-k0
19,B19,71 % of GpH7-B3/GpL16-k0
20,B20,21 % of GpH7-B3/GpL16-k0
21,B21,21 % of GpH7-B3/GpL16-k0
22,B22,38 % of GpH7-B3/GpL16-k0
23,B23,-1 % of GpH7-B3/GpL16-k0
24,B24,12 % of GpH7-B3/GpL16-k0
